Like-named read-outs stand apart in the source and are kept apart here.
Legend:
[1] = type: physicochemical
Method: HPLC sample standards were prepared by dissolving KLG, MeKLG, ascorbic acid (ASA), and butyl-KLG to the appropriate concentration in water. Samples of these standards were placed in filled and sealed vials, stored at room temperature, and analyzed periodically. The HPLC was calibrated on the area response for standards that were injected onto the HPLC as soon as possible after the preparation of the standards.

[2] = solubility of butyl-KLG in water; type: physicochemical
From the text: The recrystallized butyl-KLG of this example had satisfactory proton and carbon NMR spectra and gave the predicted molecular weight by field desorption mass spectrometry.

[3] = enzyme screen for hydrolysis/methanolysis of butyl-KLG (HPLC of products and remaining substrate); type: biochemical; parameters: KLG formed / MeKLG formed / ASA formed / BuKLG (remaining substrate): unit: ppm
Method: (§1) Initial enzyme screens were carried out as follows. Enzyme (typically 10 mg), aqueous buffer (typically 860 microliters (ul) or 550 ul), aqueous 0.2M CaCl2 (10 ul), methanol (typically 90 ul or 400 ul), and an aqueous solution of substrate (typically 90 ul of butyl-KLG at a typical concentration of 110,000 ppm) were added to a 2 ml polypropylene centrifuge tube. The resulting solution was vortexed briefly and placed on a shaker bath at 300 rpm at 38° C. (typically for 18 hours or more). After incubation, samples were centrifuged at 14,000 G's (14,000 times gravity) for 20 minutes to remove enzyme, sampled (300 ul), and diluted to one milliliter with distilled water. If not analyzed by HPLC within the day, samples were frozen prior to analysis.
The data were reported in terms of parts per million of KLG, MeKLG, ascorbic acid (ASA) and butyl-KLG. […] Samples labeled as "no enzyme" were controls within a given run. The controls contained substrate but no enzyme and thus represented experimental and HPLC background data.

[4] = enzyme screen for methanolysis of KLG; type: biochemical; parameters: unit not given here; details: Table 14: 38° C., 19 Hours, 8.6% Methanol-Water, 0.2M MES Buffer
Method: as §1

[5] = Example 4: 38% methanol-water, MES, pH 5 to 5.8
[6] = Example 8: 8.6% methanol-water, MES, pH approximately 5.8 to 6.2
[7] = Table 3: 38° C., 16 Hours, 38% Methanol-Water, 0.1M MES Buffer
[8] = Table 4: 38° C., 47.5 Hours, 38% Methanol-Water, 0.1M MES Buffer
[9] = Table 7: 38° C., 19 Hours, 8.6% Methanol-Water, 0.1M MES
[10] = Table 8: 38° C., 21 Hours, 8.6% Methanol-Water, 0.2 M MES
[11] = Table 9: 38° C., 19 Hours, 8.6% Methanol-Water, 0.2M MES Buffer
[12] = Table 10: 38° C., 19 Hours, 38% Methanol-Water, 0.2M MES Buffer
[13] = Table 11: 38° C., ca. 19 Hours, 8.6% Methanol-Water, 0.2M Pyridine/Pyridinium Hydrochloride
[14] = Table 12: 38° C., ca. 19 Hours, 38% Methanol-Water, 0.2M pyridine buffer, pH 4.7 to 5.1
[15] = Table 13: 38° C., 20 Hours, 8.6% Methanol-Water, pH 2.3, 0.2M Phosphate Buffer
[16] = Example 9: 8.6% methanol-water, 0.2M MES

CCCCOC(=O)C(=O)[C@@H](O)[C@H](O)[C@@H](O)CO [butyl-KLG, butyl 2-keto-L-gulonate]
Amount Found ([1]; 50 ppm standard, 0 minutes): 50.6 ppm | Amount Found ([1]; 50 ppm standard, 400 minutes): 42.7 ppm | Amount Found ([1]; 50 ppm standard, 715 minutes): 38.2 ppm | Amount Found ([1]; 100 ppm standard, 0 minutes): 101 ppm | Amount Found ([1]; 100 ppm standard, 400 minutes): 100.1 ppm | Amount Found ([1]; 100 ppm standard, 715 minutes): 94.2 ppm | Amount Found ([1]; 500 ppm standard, 0 minutes): 506 ppm | Amount Found ([1]; 500 ppm standard, 400 minutes): 512 ppm | Amount Found ([1]; 500 ppm standard, 715 minutes): 499 ppm | solubility [2]: ≥ 500 mg/mL

B1: ChiroCLEC-BL (Dry): crystalline crosslinked enzyme, a crystalline form of Subtilisin (a protease) (Altus Biologics) (protein, UniProt P00780 106-379, looked up)
Subtilisin Carlsberg: AQTVPYGIPLIKADKVQAQGFKGANVKVAVLDTGIQASHPDLNVVGGASFVAGEAYNTDGNGHGTHVAGTVAALDNTTGVLGVAPSVSLYAVKVLNSSGSGSYSGIVSGIEWATTNGMDVINMSLGGASGSTAMKQAVDNAYAKGVVVVAAAGNSGSSGNTNTIGYPAKYDSVIAVGAVDSNSNRASFSSVGAELEVMAPGAGVYSTYPTNTYATLNGTSMASPHVAGAAALILSKHPNLSASQVRNRLSSTATYLGSSFYYGKGLINVEAAAQ
modifications: crystalline cross-linked enzyme
levels of activity / conversion of butyl-KLG [3, 5]: particularly high levels of activity | levels of activity / conversion of butyl-KLG [3, 6]: particularly high levels of activity | ASA formed [3, 7]: 3 ppm | BuKLG (remaining substrate) [3, 7]: 5123 ppm | KLG formed [3, 7]: 194 ppm | MeKLG formed [3, 7]: 642 ppm | ASA formed [3, 8]: 54 ppm | BuKLG (remaining substrate) [3, 8]: 634 ppm | KLG formed [3, 8]: 3744 ppm | MeKLG formed [3, 8]: 1724 ppm | ASA formed [3, 9]: 135 | BuKLG (remaining substrate) [3, 9]: 4051 | KLG formed [3, 9]: 2860 | MeKLG formed [3, 9]: 1233 | ASA formed [3, 10]: 6 ppm | BuKLG (remaining substrate) [3, 10]: 1376 ppm | KLG formed [3, 10]: 4293 ppm | MeKLG formed [3, 10]: 1282 ppm | ASA formed [3, 11]: 215 ppm | BuKLG (remaining substrate) [3, 11]: 3045 ppm | KLG formed [3, 11]: 3485 ppm | MeKLG formed [3, 11]: 1235 ppm | ASA formed [3, 12]: 102 ppm | BuKLG (remaining substrate) [3, 12]: 5572 ppm | KLG formed [3, 12]: 1261 ppm | MeKLG formed [3, 12]: 1693 ppm | ASA formed [3, 13]: 67 ppm | BuKLG (remaining substrate) [3, 13]: 5603 ppm | KLG formed [3, 13]: 987 ppm | MeKLG formed [3, 13]: 1360 ppm | ASA formed [3, 14]: 7 | BuKLG (remaining substrate) [3, 14]: 10950 | KLG formed [3, 14]: 97 | MeKLG formed [3, 14]: 447 | ASA formed [3, 15]: 0 | BuKLG (remaining substrate) [3, 15]: 10580 | KLG formed [3, 15]: 387 | MeKLG formed [3, 15]: 0 | ASA formed [4]: 0 | BuKLG [4]: 0 | KLG (remaining substrate) [4]: 3270 | MeKLG formed [4]: 0

B2: Pig Liver Esterase: pig liver esterase (a hydrolase) (protein)
chain: MWLLPLVLTSLASSATWAGQPASPPVVDTAQGRVLGKYVSLEGLAFTQPVAVFLGVPFAKPPLGSLRFAPPQPAEPWSFVKNTTSYPPMCCQDPVVEQMTSDLFTNFTGKERLTLEFSEDCLYLNIYTPADLTKRGRLPVMVWIHGGGLVLGGAPMYDGVVLAAHENFTVVVVAIQYRLGIWGFFSTGDEHSRGNWGHLDQVAALHWVQENIANFGGDPGSVTIFGESFTAGGESVSVLVLSPLAKNLFHRAISESGVALTVALVRKDMKAAAKQIAVLAGCKTTTSAVFTFVHCLRQKSEDELLDLTLKMKFLTLDFHGDQRESHPFLPTVVDGVLLPKMPEEILAEKDFTFNTVPYIVGINKQEFGWLLPTMMGFPLSEGKLDQKTATSLLWKSYPIANIPEELTPVATFTDKYLGGTDDPVKKKDLFLDLMGDVVFGVPSVTVARQHRDAGAPTYMYEFQYRPSFSSDKFTKPKTVIGDHGDEIFSVFGFPLLKGDAPEEEVSLSKTVMKFWANFARSGNPNGEGLPHWPFTMYDQEEGYLQIGVNTQAAKRLKGEEVAFWNDLLSKEAAKKPPKIKHAEL
levels of activity / conversion of butyl-KLG ([3]; Example 3: 38% methanol-water, MES, pH 4.8 to 5.8): particularly high levels of activity | levels of activity / conversion of butyl-KLG [3, 5]: particularly high levels of activity | levels of activity / conversion of butyl-KLG ([3]; Example 7: 8.6% methanol-water, MES, pH approximately 5 to 6): particularly high levels of activity | levels of activity / conversion of butyl-KLG [3, 6]: particularly high levels of activity | conversions to ascorbic acid [3, 16]: significant conversions to ascorbic acid | selectivity (transesterification) [3, 16]: selectivity toward transesterification | levels of activity / conversion of butyl-KLG ([3]; Example 9: 8.6% methanol-water, 0.2M MES, pH approximately 5.6 to 6): particularly high levels of activity | levels of activity / conversion of butyl-KLG ([3]; Example 10: 38% methanol-water, 0.2M MES, pH approximately 5.6 to 6.2): Decreased, although still appreciable, activity | levels of activity / conversion of butyl-KLG ([3]; Example 11: 8.6% methanol-water, pyridine buffer, pH approximately 4.9 to 5.3): particularly high levels of activity | ASA formed [3, 7]: 294 ppm | BuKLG (remaining substrate) [3, 7]: 5711 ppm | KLG formed [3, 7]: 446 ppm | MeKLG formed [3, 7]: 4377 ppm | ASA formed [3, 8]: 246 ppm | BuKLG (remaining substrate) [3, 8]: 1368 ppm | KLG formed [3, 8]: 705 ppm | MeKLG formed [3, 8]: 2720 ppm | ASA formed [3, 9]: 423 | BuKLG (remaining substrate) [3, 9]: 10 | KLG formed [3, 9]: 2726 | MeKLG formed [3, 9]: 3731 | ASA formed [3, 10]: 717 ppm | BuKLG (remaining substrate) [3, 10]: 83 ppm | KLG formed [3, 10]: 2373 ppm | MeKLG formed [3, 10]: 4167 ppm | ASA formed [3, 11]: 650 ppm | BuKLG (remaining substrate) [3, 11]: 0 ppm | KLG formed [3, 11]: 1947 ppm | MeKLG formed [3, 11]: 4258 ppm | ASA formed [3, 12]: 173 ppm | BuKLG (remaining substrate) [3, 12]: 7030 ppm | KLG formed [3, 12]: 203 ppm | MeKLG formed [3, 12]: 1654 ppm | ASA formed [3, 13]: 37 ppm | BuKLG (remaining substrate) [3, 13]: 390 ppm | KLG formed [3, 13]: 1613 ppm | MeKLG formed [3, 13]: 5787 ppm | ASA formed [3, 14]: 0 | BuKLG (remaining substrate) [3, 14]: 11750 | KLG formed [3, 14]: 47 | MeKLG formed [3, 14]: 197 | ASA formed [3, 15]: 0 | BuKLG (remaining substrate) [3, 15]: 9500 | KLG formed [3, 15]: 417 | MeKLG formed [3, 15]: 93 | ASA formed [4]: 0 | BuKLG [4]: 0 | KLG (remaining substrate) [4]: 4393 | MeKLG formed [4]: 0

— patent US5817490A, “Enzymatic process for the manufacture of ascorbic acid 2-keto-L-gulonic acid and esters of 2-keto-L-gulonic acid” (Eastman Chemical Company, priority 1997, dated 1998)
